According to patent US20140322196A1:

B1: bLf C-lobe (aa 345-689) (protein)
chain: VVWCAVGPEEQKKCQQWSQQSGQNVTCATASTTDDCIVLVLKGEADALNLDGGYIYTAGKCGLVPVLAENRKSSKHSSLDCVLRPTEGYLAVAVVKKANEGLTWNSLKDKKSCHTAVDRTAGWNIPMGLIVNQTGSCAFDEFFSQSCAPGADPKSRLCALCAGDDQGLDKCVPNSKEKYYGYTGAFRCLAEDVGDVAFVKNDTVWENTNGESTADWAKNLNREDFRLLCLDGTRKPVTEAQSCHLAVAPNHAVVSRSDRAAHVKQVLLHQQALFGKNGKNCPDKFCLFKSETKNLLFNDNTECLAKLGGRPTYEEYLGTEYVTAIANLKKCSTSPLLEACAFLTR
B2: bLf C-lobe (aa 285-689) (protein)
chain: SFQLFGSPPGQRDLLFKDSALGFLRIPSKVDSALYLGSRYLTTLKNLRETAEEVKARYTRVVWCAVGPEEQKKCQQWSQQSGQNVTCATASTTDDCIVLVLKGEADALNLDGGYIYTAGKCGLVPVLAENRKSSKHSSLDCVLRPTEGYLAVAVVKKANEGLTWNSLKDKKSCHTAVDRTAGWNIPMGLIVNQTGSCAFDEFFSQSCAPGADPKSRLCALCAGDDQGLDKCVPNSKEKYYGYTGAFRCLAEDVGDVAFVKNDTVWENTNGESTADWAKNLNREDFRLLCLDGTRKPVTEAQSCHLAVAPNHAVVSRSDRAAHVKQVLLHQQALFGKNGKNCPDKFCLFKSETKNLLFNDNTECLAKLGGRPTYEEYLGTEYVTAIANLKKCSTSPLLEACAFLTR

How the values were obtained:
Assay in all cases: cell-based or functional assay
[1] = biological target: Hemagglutinin (HA) of Influenza A virus A/Turkey/Italy/2676/99 H7N1 (Influenza A virus A/Turkey/Italy/2676/99 H7N1)
[2] = biological target: Hemagglutinin (HA) of Influenza A virus A/Roma-ISS/2/08 (Brisbane-like) (oseltamivir-sensitive) H1N1 (Influenza A virus A/RomaISS/2/08 H1N1)
[3] = biological target: Hemagglutinin (HA) of Influenza A virus A/Parma/5/06 (Wisconsin-like) H3N2 (Influenza A virus A/Parma/05/06 H3N2)
[4] = biological target: Hemagglutinin (HA) of Influenza A virus A/Puerto Rico/8/34 H1N1 (PR8 virus) (Influenza A virus A/Puerto Rico/8/34 H1N1) (UniProt P03452)

| Binder | activity on viral hemagglutination (HI) [1] [fM] | activity on viral hemagglutination (HI) [2] [nM] | activity on viral hemagglutination (HI) [3] [nM] | activity on viral hemagglutination (HI) [4] [nM] |
| --- | --- | --- | --- | --- |
| B1 | 93.1 | 10 | 6 | 12 |
| B2 | 93.1 | 10 | 6 | 24 |
